Assay results reported in the DeepSol protein solubility set.

Test: soluble on expression in E. coli; label from the status in PepcDB or PDB records

Sequence | soluble on expression in E. coli
MGSDKIHHHHHHMRKDGHMQLQTIKVQGFKSIRELEFSLRPLNILIGANGSGKSNILGVFAFLRAMVERHLQMYVARAGGADRILHFGQKNTDSLQIELWFTKKNRRARGNIIANGYRCALVPAVGDRFVFAEERAFFHDRRYEKPVETLLGSGHEESLLPASYGRGIPADVFEAMQSWIVYHFHDTSDSARVKQTGDIDDNYWLRQDASNLTAYLYYIQQQAPDHYRNIVDVIRMVAPFFDDFVLRPSPFNPNKIKLEWRERGSDTYFDAYALSDGTLRFICLATLLLQPARKFPAIILLDEPEMGLHPYAIHVLAELLHSAATQTQVIVATQSVTLVNQFEPEDIVVVERQDGQPVCRRLTMEETETWLDGYGLGDLWEKNILGGRPLP | not soluble
MGSDKIHHHHHHMRKSRDANPFKAMPNILYPDELMDKAYNRSEKIAGELRTTTRGLSTPKSKIIEDNKIRTTASVISDNLLKIVEKTPSIDNLDPFYREILEIMVGSDEFKKSLAAVQWASEIVKKLGTQYSRKVKKAPSPQATSIVRKEFIGRVSSVLKQIYPNMAFLGVARNKLKNIPTVKNLPSVVIAGYPNVGKSTLLRTLTDAEPEVNSYPFTTKGLNIGYTEEGIQIIDTPGVLDRPIYERNDIELHAVVAINYLSDMILFVIDPTEFCGFTMEEQFNLLQEIRKTFNVPILVALTKMDVDEIEGLDKLEEDLGEYEVLKVSSFKKEGIADLRERLLDILDEQGLMGLLEE | not soluble
MGSDKIHHHHHHMRLKELLPNFLIVHQEVPEDPIAFKSTDKRENENKEITIPELIDTKVPELADGATDTLYGLLVNGHLQTAYGSFRHFDNIYKVQYKRMIIKYPHGGEGTVDFAVNGRSTKRRKVEKEYVPTSQPVFNGNLKRRYSYYSPDDPKLNSDDAKPMLIILHGLTGGSRESYVRAIVHEITTKYDFEACVFNARGCCYSAITTPLLYNGGWTNDIRYCVNDLRKRFPNRKFYMMGFSLGASIMTNYLGEESDRTKIECAISVSNPFDLYNSAYFINSTPMGSRFYSPALGHNLLRMVRNHLSTLEENPDFKDVIEKHLKKIRTVRQFDNLLTGPMFGYKNAEEYYKNASSYKRIPGIRTPFIALHAQDDPIVGGDLPIDQIKSNPYTLLLETSTGGHVGWFKDRSGRRWYAEPLCRFLKIFHDEITVKGLKPDLENVQLPDPNCEPIATTFRAN | not soluble
MGSDKIHHHHHHMRLPPLNALRAFEAAARHNGYIAAAEELCVTRGAVSRHIKLLEDHLGVTLFHRNHRGVELTAAGRQLLPVLTETFARIAREAEQISAMTRDVRIICPPALSIRWLFPRLEEFQAAHPDIRVRLTTEFYGAKGFDDTEHDLGVSVEHVSGRGAGIASMPLFPMVLSPACSPALLRQRPLSAPADLARMTLLHESPQRRDWAHWLSSFGVRGVDAGSGPTFPNLDMAARAATMGAGVVMADLALCQEELRAGTLVLPFPEMTCTTPQGGYVLLGARARWDEPHLRAFRDWAASSSADLVACMGA | not soluble
MGSDKIHHHHHHMRLTTKGRFAVTAMIDLALREHSGPVALAAISSRQQISLSYLEQLFGKLRRHELVESTRGPGGGYSLGRKAEEITVADIIVAVDEPIDATGCGGKENCMGEDSGRCMTHDLWASLNTKMIEFLDSISLRKLVDDQLAKGVSIEEAPVKRAISSQPVVKPIKITAPNSVFALGSSFSK | not soluble
MGSDKIHHHHHHMRLYTRTGDKGKTSVIGGRLAKDDTRVVAYGTTDELNSFVGLAITQLDENTFADIRGELFKIQHELFDCGGDLAMLKVKEDRPYKAKQEIVDFLEQRIDAYIKEAPELERFILPGGSEAAASLHVCRTIARRAERYVVRLQQEGEINPIVLKYLNRLSDYFFAVARVVNSRLQVPDVEYERSAIVFREGKRKEDKK | not soluble
MGSDKIHHHHHHMRNLISETKSLYKLIDFKDVQIFGDAANYTCILFLKIYKNDVFSYIFPKSTDTFTIQSVSNVDTFQEYKLPLPKPDHPWILSENKVSELIRKLSRKGIPLEIISKNIFQSLTTSADGIYFVQVESETRDTAKIRNIKNNLEFAVEKTILRKLLKGKDIRRCSVDWKGSYVVYPYLVKDDKASLITLSEIKDRYPLAYEYFKHYELQLKTREDNKLKDDENWHQYIYRKNLEKFEQKKIVTQVLASKNTFAIDLNGEFYFVGGDNAGGYGIVLNDNNQNMYYFVLALLNSNVLEFYLKNISTPFRGGYFSYGKRFIDKLPLLIPKDSRFDSVSSLSKEQMNISKKMRNFPNTDERDLLEREYDKRCQELNQMIYEIYGLNKLEITLLDDRLCQ | not soluble
MGSDKIHHHHHHMRPLIFAYANAAASIAADSWNLVMGEDNPFCRHEYLLSLEQSLSACDATGWQACHLCVFDASGMGLTQEQNTDGIVSTRDAVHFIDLPLLAVMPLYQKSHSYGEYVFDWAWAQAYEHHGLAYYPKLLNAIPFTPVLGRRIGLSPRLSADEAQQLSALVFTCLNRQLMDAHASISSWHCLFVSPSQQSLFEPPLSVKQQTLQHLPHNPSLRRLSTQFHWYNRGYTSFEAFLAALNSRKRKNIVKERAQLQTHGLRFEFVAGNVITSQQWQRFIECYQLTYLKRSGHRGYLTPVFFQMIAERLAEQIVLLVVSDATGEMIAGALYFTGRNELGQRCLFGRYWGSTLELEGLHFEACYYQGIEYCIAQDIEVFDAGAQGEHKVLRGFEPVAIYSYHNIAHPEFKLAIAHFTEEEAVQMEVYMQQMREVLPYKKAP | not soluble
MGSDKIHHHHHHMRSIVQNKVEECLEILKWDKTKWIDFWRELRRKFGPIVPNYERKLELNDEKIEKILREIERRELDRFKWDWLDVSRNKKIECAESLSEREDFLDLKREDFSVFLMSLLGLSDWVVVDGEKEKIVVMDVFSLWRKGLLRELSLATLHAVIEFRKGKEIGNYGGKKEYFDSLLKEIEKILKRGKEALGDLCEFLRNHVSYYDWVGFYFVEDGKLKLGPFVGEPTEHVEIPFGVGICGQAAEREETFVVQDVSKETNYLSCSPKTKAEIVVPIFKDGKIIGELDIDSYSPSPFSEEDRAFLEKVCELVSKVV | not soluble
MGSDKIHHHHHHMRTALLEVGLEELPASEFHSILKQLEEKSAELLKAYRVSSGSVEVFVGSRRFGVILKNLPERQEDFTEEKKGPPLNVAYDENGKPTRALEGFLRNNNASLENVVHREGYVYLSRVVEGKPVEEVLPDLFRDLVLGLNFRKPMRWGSGEHEYIRPVHWIVAMVDGRVLDLEIFGLRSSRISYGKRYHAGSIEIPDSERYYESLKKGFVISSHLERKKFVLEQIDEFEKRSSMKIERDEELIEEIVAITEYPRIVVGQFDRKYLELPEEIIVTAVKHHQRSFIAHKGTLTNTFVAFQDGPQPPENVVKGYERVINARLEDARYYFQKDLETPLEKMNEKLKEIVFQEKLGTLYDKVERIKKISQRLCEDLKLPGSFTQKVLEAASICKADIASKVVYEFPELQGVMGRIYALREGINEEIATAIEDHYSEEPQTVIGSILGIADRIDTIVGNFAIGNVPTSSKDPYGLKSKADTIFRIIRKNEWDISLEELLTFASSLVGYRLSEELETFFAGRFYQFLINELGISFDVARAVNHLWKKPLRGILSAEALQEISEKPEFQDLFVGFERVHNITKNHDSTKFDGALFEKEEEKKLMNKFYEVKEKVLKALERLNYREALQYLIELKPYIDEYFDNVFVMVKRDDLRVNRLSFLKNIDELFMMVGDMTYLVKRSQV | not soluble
MGSDKIHHHHHHMRVEDILDQLVMQSRDQDGAKYYISLINDMRIDRSVDPVKSIILEILSLCSDGRIDPWDVDLLKFAEIMNSFFGNSFIDFQFAGKAIADAWRVLRIKSDMSPKEQDRQMNDIGCEEPEDTDNFIPQNQVVIQLVPSVLTPQSRPVVLVDLIDEIRRKMYSSRLQKKKVDVHIEFDSSKLNPDRSEEMIEKTYRAIIESGKQKVFMSEIWGNTRRERAVFFLYSMFLFRDGRISLSQEEPNGDILIETNVI | not soluble
MGSDKIHHHHHHMRVEIIFLGCGGGRWATITQKKATGGFRIHTNELRMHVDPGPGAIVRLNELKISPWRTNALFISHCHPDHYTDGEIIVEAITQGMTKKRGVFLGSLSVVEGFGEYEYVVSKYHQSKLEEVRVLYPGDSAELYDTTIKATHTKHGDPFGIGFRLSTIYGDIGYTSDTEFIPQLIEDFDGVRILIANIVRKKNERIKGHLCSNDAIDLINSMNKKPELLIMNHMGVKMTNPQIEAEYISQNTGIEVIPARLGLKVELLNGKYKYQLIK | not soluble
MGSDKIHHHHHHMRVLGLILAGGKSDRLWPLTKVRASAAVPVFGKYRAIDFTLSNMVNSGIRKVGILTQYNPRSLMDHLGSGKEWDLDRKSGGLFILQPYVGPNREVWYRGTADAIFQNMTILRRGEEDHVLIGSGDHIYKMIYRDLFNYHLKKGADITLVVKELDETYNLSEYGIVQLDDDMRVVEIEEKPAHPKGNIAFLGVYFMNKELLKELLYATVPQGKYDLLLDIVIPNLDRLKVYAYRFDGYWRNVKKGIKEYYRINMDILKKEVRDELFYRNGKVYTKLKDLPPPKFTTTAVVENSLIADGSIVSGTVRNSVIFRNVRIKVGAVVENSIIMENTVVEEGAVLRNVILDKNCIVREGRVIEGDTELPVFEKRAVL | not soluble
MGSDKIHHHHHHMRVLHFYKTYLSETVGGIEQVIFQLCESSGSWGIDNHVLTLSSDPHPPVVPFGGHVVHRARLDLQLASTGFSLSVFKQFRELAAEADVVNYHFPWPFMDLVHFLTGMNKPSVVTYHSDIIRQRVLLKLYRPLMSRFLHSVDRIVAASPNYFSTSDVLRQYREKTRVITYGLDKDGYPKPATQRLEHWREKLGPRFFLFVGVMRYYKGLHILLDALQGTDYPVVIVGAGPLQAELYAQAAALGLRNVHFLGRVDDEDKVALLQLSYAMVFPSHLRSEAFGISLLEGAMYGKPMISSEIGTGTSYINIHGETGLVVPPSQPAAFRQAMRWLWEHPQQAEEMGRNAEARYRQLFTAEEMGRRWSELYRELLEEKASSRYVKAAR | not soluble
MGSDKIHHHHHHMRVLVKLSGEALSGEGGRGFDPERVNYIVNEIKSAIEEGFKIGIVVGAGNLFRGVELKNLTMTRADQIGLLGTVMNSVYLKDIFERSGLKARIYSQIVNLPDVERVNYDSIESALRENSILIFAGGTSNPFFTTDTAAVLRAQEMRAKLVVKATKVDGVYDKDPKKFPDAKKIPHLTFSEAMKMGLKVMDAEAFALCKKLGITVKVINFFEPGTLLKALKGEDVGSTVVPD | not soluble
MGSDKIHHHHHHMRVMAFVQARMGSTRLPGKSLMPVWNGMGVLEMTLRRALRARTLSGVVLCTSTDPACDALETLASGLGVQAFRGPEDDVLTRYALATERFEPDAVVRICADSPLVCPEGIDALVAFFRDEGLDYAAHAMDGTGLPDGLGCEVFTAAALAQAHAEATAPEDREHVSLFIRHRPERFRQATLAADAALRAPGVSLDVDTQDDLDALRRFIMALPPSEGPFWSADAIAPLARGLHTPPQGTSMDIASDDYHDFFIRDGKLIGEFEQMYRKSRHAPWHQDEACDKWFNKVSAALVGHALDDPSVRTVFEVGSGLGYFLSQFAGEGRTLTGTDVSATAVEKARALFPGISFEVDDIRFEGRRGPYDLCLMQAVCWCIFPHMDDVVRNVTATVRPGGYLFLGECFQPLDGPFAGKDVIPTPDALIGHFSHAFDTVADVRVTRGEMGGGPIIYWLGRRRG | not soluble
MGSDKIHHHHHHMRYHIALVGRRNSGKSSLLNMLAGQQISIVSDIKGTTTDAVAKAYELQPLGPVTFYDTAGIDDEGTLGAMRVSATRRVLFRSDMALLVVDEQGLCPSDMALIDEIRQLQMPILMVFNKADICTPKAEDIAFCQNQSLPFIVVSAATGLAGKQLKQLMVELAPAEYKQEPLLAGDLYQAGDVILCVVPIDMAAPKGRLILPQVQILREALDRSAIAMVVKETELAQALSVVTPKLVISDAQAIKQVAAIVPDAVPLTTFSTLFARFKGDLAALATGADALDTLQDGDKVLISEACSHNVQEDDIGRVKLPRWINSYTGKQLEFVVTSGHDFPNDLEQYALVIHCGACMFNRNEMLRRIRECQRRQVPITNYGVAISKLQGVLPRVLTPFNRNPQQ | not soluble
